Source: US20220289837A1 (VIB VZW, published 2022)

Key:
[1] = target: T1, 2PT-NBD1 (human CFTR nucleotide-binding domain 1, residues 387-646, with S492P, A534P, I539T) (human, UniProt P13569 388-646, biotinylated for the ELISA (sites not given)); assay: ELISA, biotinylated 2PT-NBD1 on avidin-coated plate, nanobody titrated, anti-His detection; column head 'pEC50 (M)'
T1 construct: N-terminal His6-SUMO tag removed with Ulp1; In the T2a-T4 and T27 crystals the domain was cut by papain or subtilisin
T1 sequence (P13569 388-646 V470M/S492P/A534P/I539T limits assumed): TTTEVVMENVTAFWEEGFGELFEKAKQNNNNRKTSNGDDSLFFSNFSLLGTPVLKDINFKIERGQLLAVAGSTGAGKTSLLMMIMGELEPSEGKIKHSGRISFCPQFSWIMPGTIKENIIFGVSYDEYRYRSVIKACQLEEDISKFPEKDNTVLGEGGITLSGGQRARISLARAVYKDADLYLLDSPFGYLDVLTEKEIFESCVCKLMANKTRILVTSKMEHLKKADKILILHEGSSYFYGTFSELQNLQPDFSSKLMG
Protocol: (§1) (a) Nanobody binding to 2PT-NBD1 measured by ELISA. Biotinylated 2PT-NBD1 was immobilized on avidin-coated plates and incubated with increasing concentration of each nanobody. Binding of nanobody was followed by immunodetection of the His-tag (see Methods). Representative curve of 3 independent experiments is shown. Error bars represent the standard deviation (SD) of duplicates. Data were normalized to maximum signal for each nanobody separately. (b) Nanobody binding to F508del-2PT-NBD1 measured by ELISA as described in panel a. (c) Nanobody T4 binding to 2PT-NBD1 and F508del-2PT-NBD1. Data were normalized to maximum signal of T4 binding to 2PT-NBD1. (d) Nanobody T8 binding to 2PT-NBD1 and F508del-2PT-NBD1. Data were normalized to maximum signal of T8 binding to 2PT-NBD1.
(§2) For dose-response assays, Nunc MaxiSorp 96-well plates (ThermoScientific), were coated with 5 μg/ml NeutrAvidin Biotin-Binding protein (ThermoScientific) overnight at 4° C. and blocked 2 h at room temperature (RT) with 2% milk in phosphate-buffered saline (PBS). Each new reagent addition was preceded by three washes with 200 μl of NBD1 buffer (20 mM HEPES pH 7.5, 150 mM NaCl, and 10% (w/v) glycerol, 10% (w/v) ethylene glycol, 2 mM ATP, 3 mM MgCl₂). Then, biotinylated purified NBD1 proteins at 5 μg/ml were immobilized 30 min at RT followed by 1 h RT incubation with 100 μl various concentrations (0-20 μg/ml) of purified nanobodies. Signal detection was followed using His-tag specific antibody (Invitrogen, catalogue number: MA1-135, 1:3000 dilution) to detect the nanobodies and secondary antibody anti-mouse coupled to horse radish peroxidase (HRP) (Millipore, catalogue number: AP308P, 1:5000 dilution). 50 μl of 1-Step UltraTMB-ELISA (ThermoScientific) was used as a substrate for the peroxidase and intensity of the reaction was proportional to absorbance measured at 450 nm with SynergyMx (BioTek) after addition of 50 μl H₂SO₄ at 1M.

[2] = target: T1, 2PT-NBD1 (human CFTR nucleotide-binding …); assay: ELISA, biotinylated 2PT-NBD1 on avidin-coated plate, D12 titrated
Text: (§3) The location of these nanobodies completely overlaps (FIG. 11a) with that of the C-terminal regulatory extension (RE) observed in previously published structures of NBD1^{[25,26].} The RE segment, comprising residues 654-673 was removed from the 2PT-NBD1 construct used for immunization and characterization. While the functional role of the RE is still unclear, it has been described to be a very mobile domain^{[27]}. […] This is consistent with RE being a dynamic region of CFTR.
as §2, with “Signal detection was followed using His-tag specific antibody (Invitrogen, catalogue number: MA1-135, 1:3000 dilution) to detect the nanobodies and secondary antibody anti-mouse coupled to horse radish peroxidase (HRP) (Millipore, catalogue number: AP308P, 1:5000 dilution).” left out

[3] = target: T2, 2PT-NBD1-RE (2PT-NBD1 with residues 387-678, containing the regulatory extension) (human, UniProt P13569 387-678, biotinylated for the ELISA (sites not given)); assay: ELISA, biotinylated 2PT-NBD1-RE on avidin-coated plate, D12 titrated
T2 sequence (P13569 other isoform, or with tags, fused parts or gaps limits assumed): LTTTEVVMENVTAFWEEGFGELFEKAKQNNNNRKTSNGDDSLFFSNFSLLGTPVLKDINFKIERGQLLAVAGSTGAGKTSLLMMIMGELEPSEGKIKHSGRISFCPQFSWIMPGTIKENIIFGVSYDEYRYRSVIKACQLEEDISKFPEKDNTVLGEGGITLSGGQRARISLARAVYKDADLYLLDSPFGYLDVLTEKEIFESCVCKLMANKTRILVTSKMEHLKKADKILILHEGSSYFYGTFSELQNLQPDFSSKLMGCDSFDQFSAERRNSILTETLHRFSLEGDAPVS
Text: as §3
as §2, with “Signal detection was followed using His-tag specific antibody (Invitrogen, catalogue number: MA1-135, 1:3000 dilution) to detect the nanobodies and secondary antibody anti-mouse coupled to horse radish peroxidase (HRP) (Millipore, catalogue number: AP308P, 1:5000 dilution).” left out

[4] = target: T1, 2PT-NBD1 (human CFTR nucleotide-binding …); assay: cell-based or functional assay
[5] = target: Purified human wt-CFTR (His10-SUMO*-CFTRFLAG-EGFP), PKA phosphorylated (human, UniProt P13569 1-1480, PKA phosphorylated (sites not given)); assay: cell-based or functional assay
Sequence of Purified human wt-CFTR (His10-SUMO*-CFTRFLAG-EGFP), PKA phosphorylated (P13569 whole entry): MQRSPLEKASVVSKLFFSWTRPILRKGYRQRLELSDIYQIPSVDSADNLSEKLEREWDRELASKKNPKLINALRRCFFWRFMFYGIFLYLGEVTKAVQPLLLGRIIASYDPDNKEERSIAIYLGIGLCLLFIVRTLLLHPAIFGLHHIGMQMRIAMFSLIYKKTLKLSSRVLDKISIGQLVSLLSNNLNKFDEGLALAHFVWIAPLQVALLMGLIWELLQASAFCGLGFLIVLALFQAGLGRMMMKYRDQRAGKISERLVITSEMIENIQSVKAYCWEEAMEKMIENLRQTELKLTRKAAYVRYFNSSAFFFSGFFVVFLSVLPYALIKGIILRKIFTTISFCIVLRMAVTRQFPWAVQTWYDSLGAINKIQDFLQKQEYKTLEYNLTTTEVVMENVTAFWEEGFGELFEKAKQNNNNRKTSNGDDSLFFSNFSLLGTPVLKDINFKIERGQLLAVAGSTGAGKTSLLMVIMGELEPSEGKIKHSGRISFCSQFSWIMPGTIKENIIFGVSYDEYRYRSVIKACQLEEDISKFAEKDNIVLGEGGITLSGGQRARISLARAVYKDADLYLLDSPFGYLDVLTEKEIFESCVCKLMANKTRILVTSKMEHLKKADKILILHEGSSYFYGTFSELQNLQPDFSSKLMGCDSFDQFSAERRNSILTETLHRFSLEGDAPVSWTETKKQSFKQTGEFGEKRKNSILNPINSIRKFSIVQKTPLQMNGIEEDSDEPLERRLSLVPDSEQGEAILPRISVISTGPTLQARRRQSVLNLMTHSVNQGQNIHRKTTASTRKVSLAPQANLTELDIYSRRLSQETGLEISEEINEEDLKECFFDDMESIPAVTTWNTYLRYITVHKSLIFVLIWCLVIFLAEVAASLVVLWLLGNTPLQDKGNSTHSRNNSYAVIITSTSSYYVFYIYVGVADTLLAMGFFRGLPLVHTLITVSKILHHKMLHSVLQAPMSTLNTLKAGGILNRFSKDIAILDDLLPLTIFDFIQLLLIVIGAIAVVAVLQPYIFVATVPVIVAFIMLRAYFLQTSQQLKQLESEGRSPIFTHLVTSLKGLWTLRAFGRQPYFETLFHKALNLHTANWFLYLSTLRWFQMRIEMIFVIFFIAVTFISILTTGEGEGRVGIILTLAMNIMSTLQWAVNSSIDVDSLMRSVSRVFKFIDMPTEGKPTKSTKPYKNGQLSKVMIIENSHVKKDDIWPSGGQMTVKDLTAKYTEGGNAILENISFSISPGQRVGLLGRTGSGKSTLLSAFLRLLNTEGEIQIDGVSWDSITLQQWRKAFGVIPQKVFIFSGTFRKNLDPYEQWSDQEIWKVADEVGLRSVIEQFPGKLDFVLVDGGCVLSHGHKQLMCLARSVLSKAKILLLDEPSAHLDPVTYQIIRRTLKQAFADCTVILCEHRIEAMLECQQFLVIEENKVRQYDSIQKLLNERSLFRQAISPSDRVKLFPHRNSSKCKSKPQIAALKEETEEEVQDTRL

[6] = target: T3, F508del-2PT-NBD1 (human, UniProt P13569 388-646, biotinylated for the ELISA (sites not given)); assay: ELISA, biotinylated F508del-2PT-NBD1 on avidin-coated plate, nanobody titrated, anti-His detection
T3 construct: also called F508del-2PT-NBD1 mutant
T3 sequence (P13569 other isoform, or with tags, fused parts or gaps limits assumed, stated change not applied): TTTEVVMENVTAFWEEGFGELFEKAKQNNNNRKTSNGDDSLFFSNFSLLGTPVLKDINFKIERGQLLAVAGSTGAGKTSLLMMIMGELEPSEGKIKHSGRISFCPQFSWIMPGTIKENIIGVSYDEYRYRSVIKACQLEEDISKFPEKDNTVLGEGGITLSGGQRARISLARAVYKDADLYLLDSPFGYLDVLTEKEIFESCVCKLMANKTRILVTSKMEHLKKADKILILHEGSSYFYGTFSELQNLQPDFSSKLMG
Protocol: as §1, §2

[7] = target: T1, 2PT-NBD1 (human CFTR nucleotide-binding …); assay: ITC, nanobody titrated into 2PT-NBD1 at 20 °C, one-site model
Protocol: (§4) Isothermal titration calorimetry (ITC) was used to characterize the thermodynamic parameters of the binding (FIG. 1e and FIG. 9). […] These KD values are similar to those measured for other in vivo matured camelid heavy-chain antibodies interacting with their ligands^{[20]}. The thermodynamic parameters of the interaction of nanobodies with 2PT-NBD1 were determined based on these ITC measurements (FIG. 1e and FIG. 9).
(§5) Interactions between nanobodies and 2PT-NBD1 was carried out on NanoITC system (TA Instruments) in 0.165 ml cells at 20° C., 300 rpm syringe stirring. Proteins were extensively dialyzed in 20 mM Hepes buffer pH 7.5, 150 mM NaCl, 10% (w/v) glycerol, 10% (w/v) ethylene glycol, 2 mM ATP and 3 mM MgCl₂ for 16 h at 4° C. Heat of dilution from control experiments of each nanobody titrated into buffer was subtracted from the titration into 2PT-NBD1. Data were integrated analyzed with Origin 7.0 software (Origin Lab Corp.).

[8] = target: T2, 2PT-NBD1-RE (2PT-NBD1 with residues …); assay: ELISA, biotinylated 2PT-NBD1-RE on avidin-coated plate, T27 titrated
Text: as §3
as §2, with “Signal detection was followed using His-tag specific antibody (Invitrogen, catalogue number: MA1-135, 1:3000 dilution) to detect the nanobodies and secondary antibody anti-mouse coupled to horse radish peroxidase (HRP) (Millipore, catalogue number: AP308P, 1:5000 dilution).” left out

[9] = target: T1, 2PT-NBD1 (human CFTR nucleotide-binding …); assay: ELISA, biotinylated 2PT-NBD1 on avidin-coated plate, T27 titrated
Text: as §3
as §2, with “Signal detection was followed using His-tag specific antibody (Invitrogen, catalogue number: MA1-135, 1:3000 dilution) to detect the nanobodies and secondary antibody anti-mouse coupled to horse radish peroxidase (HRP) (Millipore, catalogue number: AP308P, 1:5000 dilution).” left out

[10] = target: T1, 2PT-NBD1 (human CFTR nucleotide-binding …); assay: isothermal titration calorimetry, nanobody titrated into 2PT-NBD1 at 20 °C, one-site model
Protocol: as §4, §5

[11] = target: T4, Stabilized human CFTR (stab-CFTR: 2PT/ΔRI/R1048A_1172X) (human, UniProt P13569 1-1171, limits assumed); assay: cell-based or functional assay
T4 sequence (P13569 other isoform, or with tags, fused parts or gaps R1048A R1048A limits assumed): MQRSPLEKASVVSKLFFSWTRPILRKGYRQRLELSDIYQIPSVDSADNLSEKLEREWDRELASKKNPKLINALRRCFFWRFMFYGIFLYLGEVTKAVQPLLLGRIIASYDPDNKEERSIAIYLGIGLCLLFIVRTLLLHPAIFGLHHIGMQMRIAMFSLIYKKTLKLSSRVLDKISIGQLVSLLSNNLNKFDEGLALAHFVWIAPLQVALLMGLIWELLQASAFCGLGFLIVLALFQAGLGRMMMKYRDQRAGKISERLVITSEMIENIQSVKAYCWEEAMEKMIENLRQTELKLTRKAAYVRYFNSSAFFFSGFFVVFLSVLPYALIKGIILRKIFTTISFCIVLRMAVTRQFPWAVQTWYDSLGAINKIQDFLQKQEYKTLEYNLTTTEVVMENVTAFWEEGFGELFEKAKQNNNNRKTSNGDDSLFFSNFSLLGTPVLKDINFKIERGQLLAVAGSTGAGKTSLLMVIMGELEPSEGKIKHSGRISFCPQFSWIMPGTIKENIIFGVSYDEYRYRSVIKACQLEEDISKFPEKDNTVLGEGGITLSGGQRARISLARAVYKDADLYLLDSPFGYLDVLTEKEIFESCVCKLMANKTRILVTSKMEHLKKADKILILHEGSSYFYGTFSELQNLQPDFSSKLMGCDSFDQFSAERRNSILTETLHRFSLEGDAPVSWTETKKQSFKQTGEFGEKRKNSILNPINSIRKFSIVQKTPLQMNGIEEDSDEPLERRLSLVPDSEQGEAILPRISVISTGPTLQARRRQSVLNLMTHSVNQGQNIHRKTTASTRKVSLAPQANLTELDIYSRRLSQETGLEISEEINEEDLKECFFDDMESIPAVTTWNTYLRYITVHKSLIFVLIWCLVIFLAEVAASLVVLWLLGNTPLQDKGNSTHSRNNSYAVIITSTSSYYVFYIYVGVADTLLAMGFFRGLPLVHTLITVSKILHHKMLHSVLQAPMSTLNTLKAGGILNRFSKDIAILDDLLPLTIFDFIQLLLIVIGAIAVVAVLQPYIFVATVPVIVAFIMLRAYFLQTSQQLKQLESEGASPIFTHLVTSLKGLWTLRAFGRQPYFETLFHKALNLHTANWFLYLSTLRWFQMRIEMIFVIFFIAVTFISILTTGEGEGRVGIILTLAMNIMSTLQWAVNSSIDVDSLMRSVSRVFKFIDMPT

[12] = target: T4, Stabilized human CFTR (stab-CFTR: …); assay: cell-based or functional assay; remark: listed apart in the source
[13] = target: T5, 2PT-F508del-CFTR expressed in BHK-21 cells (human, UniProt P13569 1-1480, I539T; S492P; A534P; F508del); assay: flow cytometry on permeabilised BHK-21 cells expressing 2PT-F508del-CFTR, anti-tag antibody and Alexa Fluor 488 secondary
T5 construct: Full-length F508del CFTR stabilized by the three point mutations; permeabilized cells in flow cytometry
T5 sequence (P13569 other isoform, or with tags, fused parts or gaps I539T/S492P/A534P/F508del): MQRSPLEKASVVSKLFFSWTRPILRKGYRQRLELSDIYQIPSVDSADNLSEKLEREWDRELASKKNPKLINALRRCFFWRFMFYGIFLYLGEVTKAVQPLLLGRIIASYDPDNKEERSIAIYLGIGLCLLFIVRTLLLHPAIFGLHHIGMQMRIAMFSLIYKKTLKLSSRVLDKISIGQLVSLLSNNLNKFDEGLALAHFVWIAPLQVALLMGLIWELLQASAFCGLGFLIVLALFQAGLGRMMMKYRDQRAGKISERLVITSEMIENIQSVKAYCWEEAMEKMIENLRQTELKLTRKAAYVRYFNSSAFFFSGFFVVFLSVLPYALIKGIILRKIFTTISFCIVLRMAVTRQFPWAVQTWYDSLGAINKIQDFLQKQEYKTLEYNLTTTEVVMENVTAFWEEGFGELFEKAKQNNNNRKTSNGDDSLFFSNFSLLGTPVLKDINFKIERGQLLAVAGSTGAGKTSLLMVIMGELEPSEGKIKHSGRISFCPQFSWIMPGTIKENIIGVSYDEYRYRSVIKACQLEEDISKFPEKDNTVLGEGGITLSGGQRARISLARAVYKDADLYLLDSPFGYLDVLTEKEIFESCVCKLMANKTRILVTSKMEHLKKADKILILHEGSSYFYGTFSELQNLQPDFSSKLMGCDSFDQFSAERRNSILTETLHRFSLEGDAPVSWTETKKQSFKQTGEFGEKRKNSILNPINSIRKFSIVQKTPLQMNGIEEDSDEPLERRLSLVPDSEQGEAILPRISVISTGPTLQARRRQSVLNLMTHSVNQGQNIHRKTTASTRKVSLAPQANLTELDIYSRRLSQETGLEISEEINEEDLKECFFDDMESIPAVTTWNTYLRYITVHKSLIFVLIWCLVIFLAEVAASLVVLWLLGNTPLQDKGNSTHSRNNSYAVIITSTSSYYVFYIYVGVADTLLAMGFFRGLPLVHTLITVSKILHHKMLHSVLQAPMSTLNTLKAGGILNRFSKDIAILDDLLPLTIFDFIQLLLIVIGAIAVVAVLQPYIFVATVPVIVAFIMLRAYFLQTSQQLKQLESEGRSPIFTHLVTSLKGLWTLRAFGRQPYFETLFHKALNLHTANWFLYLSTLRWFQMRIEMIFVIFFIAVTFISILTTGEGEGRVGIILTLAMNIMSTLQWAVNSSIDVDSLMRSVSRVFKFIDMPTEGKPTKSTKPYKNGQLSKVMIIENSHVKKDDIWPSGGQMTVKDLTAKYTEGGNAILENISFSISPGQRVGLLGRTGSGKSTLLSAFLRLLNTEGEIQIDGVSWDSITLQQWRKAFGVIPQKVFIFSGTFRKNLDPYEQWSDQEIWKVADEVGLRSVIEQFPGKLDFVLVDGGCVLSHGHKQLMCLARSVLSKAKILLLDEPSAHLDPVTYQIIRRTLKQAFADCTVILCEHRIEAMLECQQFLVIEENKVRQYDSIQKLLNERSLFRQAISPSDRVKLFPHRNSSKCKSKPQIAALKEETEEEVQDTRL
Text: Graph depicts one representative of at least three independent experiments. (FIG. 4F) Average median fluorescence (fold over negative control) for each of the three representative nanobodies as illustrated in (FIG. 4D) and (FIG. 4E). Quantification of at least 3 independent experiments (±SEM). (g) Immunoblot of CFTR from solubilized BHK-21 cells pulled-down with His-tagged nanobodies, including a non-CFTR nanobody as a control. Eluted nanobodies-CFTR complexes were separated by SDS-PAGE and presence of CFTR was detected with mAb 596 antibody after immunoblotting. Arrows indicate the mature (band C) and immature (band B) forms of CFTR. Representative of at least 3 independent experiments. (FIG. 4H) Flow cytometry analysis of nanobodies T2a, T8 and G3a on BHK-21 cells expressing 2PT-F508del showing increased labelling for T2a and G3a, but not T8. (FIG. 4I) Quantification of data illustrated in […]. Average of 3 independent experiments (±SEM).
Parental BHK-21 cells (ATCC; CCL-10) and cells stably overexpressing human wt-CFTR^{[43,44,47]} or 2PT-F508del-CFTR, as described above, were permeabilized with 0.01% n-Dodecyl-β-D-Maltopyranoside β-DDM—Inalco) at least for 2 h on ice. In the meantime, cells were incubated with 50 μg/ml nanobodies and DRAQ7 (0.3 μM—Biostatus) to monitor the permeabilization state. Nanobody binding was detected by using His-tag specific antibody (Invitrogen, catalogue number MA1-135, 1 μg/ml) or Myc-tag specific antibody (Invitrogen, catalogue number 13-2500, 2 μg/ml) and then anti-mouse-Alexa Fluor 488 (Invitrogen, catalogue number A11001, 1.3 μg/ml) at least for 30 min on ice. Cells were washed one time between each step by centrifugation (200×g for 5 min at 4° C.). All incubations (100 μl) and washes (1.5 ml) were performed in PBS with 6% fetal bovine serum (FBS) and 0.01%13-DDM on ice. Cells fluorescence was measured with Gallios Flow Cytometer (Beckman Coulter). Data were analyzed with Kaluza software.

Binder	pEC50 [1]	EC50 (read off the curve) [2] [nM]	EC50 (read off the curve) [3] [nM]	increase of Tm (thermal shift assay, DSF) [4] [°C]	ATPase activity (% of PKA-phosphorylated CFTR) [5] [%]	EC50 (read off the curve) [6] [nM]	ΔG [7] [kcal/mol]	ΔH [7] [kcal/mol]	EC50 (read off the curve) [8] [nM]	EC50 (read off the curve) [9] [nM]	Kd [10] [nM]	Tm of stab-CFTR in complex with the nanobody (nanoDSF, first derivative of 350 nm fluorescence); 'stab-CFTR (51.4°C)', 'T4 (73.8°C)' alone [11] [°C]	thermostabilization (nanoDSF, Tm) [12] [°C]	binding result [13]
Nanobody D12 (VHH, not shown: small tags and cut ends, Llama nanobody raised against 2PT-NBD1; produced in E. coli periplasm; also called Nb D12; D12 Nb) VHH: QVQLQESGGGLVQAGSSLRLACAATGSIRSINNMGWYRQAPGKQRGMVAIITRVGNTDYADSVKGRFTISRDNAKNTVYLQMNSLKPEDTATYYCHAEITEQSRPFYLTDDYWGQGTQVTVSS	7.6	~50	~80	13.8	50	~10								
Nanobody T27 (VHH, not shown: small tags and cut ends, Llama nanobody; also called NbT27; T27 Nb) VHH: QVQLQESGGGLEQPGGSLRLSCATSGVIFGINAMGWYRQAPGKQRELVATFTSGGSTNYADFVEGRFTISRDNAKNTVYLQMNGLRPEDTAVYYCHATVVVSRYGLTYDYWGQGTQVTVSS	8.7			11.9	30	~2	-10.2	-12.1	~3	~3	25			
Nanobody T4 (VHH, not shown: small tags and cut ends) VHH: QVQLQESGGGLVQAGGSLRLSCAASGSTFAIIAMGWYRQAPGKQRELVAVISTGDTRYADSVKGRFTISRDNAKNTVYLQMDSLRPEDTAVYYCNAAVQVRDYRNYWGQGTQVTVSS												59.4	8	
Nanobody G3a (VHH, not shown: small tags and cut ends, Llama nanobody, non-stabilizing; also called Nb G3a; G3a Nb) VHH: QVQLQESGGGLVQAGGSLRLSCTASGRAFSWYVMGWFRQAPGKEREFVATVSGNGSRRDYADSVKGRFTISRDNAKNTVYLQMNSLKPEDTAVYYCAASSTYYYTDPEKYDYWGQGTQVTVSS	5.8					~2000	-7.98	-11.4			1100			binds
